Reference: PMC2950890 (Nature structural & molecular biology, 2010)

Target: T1, Escherichia coli RecB (E. coli, UniProt P08394 1-1180)
T1 sequence: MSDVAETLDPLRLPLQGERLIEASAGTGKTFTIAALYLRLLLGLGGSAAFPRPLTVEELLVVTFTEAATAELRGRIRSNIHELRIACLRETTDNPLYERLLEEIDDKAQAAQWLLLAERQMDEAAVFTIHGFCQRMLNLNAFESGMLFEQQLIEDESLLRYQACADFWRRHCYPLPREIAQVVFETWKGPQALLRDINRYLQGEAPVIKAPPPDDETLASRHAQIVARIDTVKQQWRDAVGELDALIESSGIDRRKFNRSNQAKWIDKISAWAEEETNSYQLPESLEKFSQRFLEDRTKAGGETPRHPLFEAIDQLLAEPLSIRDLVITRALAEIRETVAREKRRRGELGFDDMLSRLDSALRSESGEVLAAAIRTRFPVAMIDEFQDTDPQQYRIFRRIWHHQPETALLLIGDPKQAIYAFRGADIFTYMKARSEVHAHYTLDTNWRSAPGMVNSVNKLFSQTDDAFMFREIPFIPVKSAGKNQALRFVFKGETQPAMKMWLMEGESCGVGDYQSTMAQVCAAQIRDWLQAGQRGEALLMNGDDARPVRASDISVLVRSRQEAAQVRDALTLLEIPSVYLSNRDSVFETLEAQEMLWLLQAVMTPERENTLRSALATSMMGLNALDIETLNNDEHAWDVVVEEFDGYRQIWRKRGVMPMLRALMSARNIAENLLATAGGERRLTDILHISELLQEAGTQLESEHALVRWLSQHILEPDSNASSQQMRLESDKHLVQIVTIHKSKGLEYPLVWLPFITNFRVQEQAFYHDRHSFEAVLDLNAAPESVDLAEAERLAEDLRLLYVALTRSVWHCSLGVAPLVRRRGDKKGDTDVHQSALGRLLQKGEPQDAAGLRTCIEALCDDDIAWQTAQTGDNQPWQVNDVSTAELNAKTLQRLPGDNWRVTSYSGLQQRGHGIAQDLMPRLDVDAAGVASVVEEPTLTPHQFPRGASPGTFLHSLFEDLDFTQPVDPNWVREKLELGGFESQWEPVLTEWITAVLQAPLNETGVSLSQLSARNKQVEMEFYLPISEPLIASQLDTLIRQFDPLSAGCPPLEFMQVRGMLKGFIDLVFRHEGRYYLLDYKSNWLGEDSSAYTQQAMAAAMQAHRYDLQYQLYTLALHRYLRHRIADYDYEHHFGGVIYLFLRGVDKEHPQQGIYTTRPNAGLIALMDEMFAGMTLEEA
Assay: reconstitution of the complex from separately purified subunits

binding result: binds
B1: Escherichia coli RecC (natural protein)
chain: MLRVYHSNRLDVLEALMEFIVERERLDDPFEPEMILVQSTGMAQWLQMTLSQKFGIAANIDFPLPASFIWDMFVRVLPEIPKESAFNKQSMSWKLMTLLPQLLEREDFTLLRHYLTDDSDKRKLFQLSSKAADLFDQYLVYRPDWLAQWETGHLVEGLGEAQAWQAPLWKALVEYTHQLGQPRWHRANLYQRFIETLESATTCPPGLPSRVFICGISALPPVYLQALQALGKHIEIHLLFTNPCRYYWGDIKDPAYLAKLLTRQRRHSFEDRELPLFRDSENAGQLFNSDGEQDVGNPLLASWGKLGRDYIYLLSDLESSQELDAFVDVTPDNLLHNIQSDILELENRAVAGVNIEEFSRSDNKRPLDPLDSSITFHVCHSPQREVEVLHDRLLAMLEEDPTLTPRDIIVMVADIDSYSPFIQAVFGSAPADRYLPYAISDRRARQSHPVLEAFISLLSLPDSRFVSEDVLALLDVPVLAARFDITEEGLRYLRQWVNESGIRWGIDDDNVRELELPATGQHTWRFGLTRMLLGYAMESAQGEWQSVLPYDESSGLIAELVGHLASLLMQLNIWRRGLAQERPLEEWLPVCRDMLNAFFLPDAETEAAMTLIEQQWQAIIAEGLGAQYGDAVPLSLLRDELAQRLDQERISQRFLAGPVNICTLMPMRSIPFKVVCLLGMNDGVYPRQLAPLGFDLMSQKPKRGDRSRRDDDRYLFLEALISAQQKLYISYIGRSIQDNSERFPSVLVQELIDYIGQSHYLPGDEALNCDESEARVKAHLTCLHTRMPFDPQNYQPGERQSYAREWLPAASQAGKAHSEFVQPLPFTLPETVPLETLQRFWAHPVRAFFQMRLQVNFRTEDSEIPDTEPFILEGLSRYQINQQLLNALVEQDDAERLFRRFRAAGDLPYGAFGEIFWETQCQEMQQLADRVIACRQPGQSMEIDLACNGVQITGWLPQVQPDGLLRWRPSLLSVAQGMQLWLEHLVYCASGGNGESRLFLRKDGEWRFPPLAAEQALHYLSQLIEGYREGMSAPLLVLPESGGAWLKTCYDAQNDAMLDDDSTLQKARTKFLQAYEGNMMVRGEGDDIWYQRLWRQLTPETMEAIVEQSQRFLLPLFRFNQS
